Measured values: patent publication US10427126B2, “System and method for longitudinal analysis of peptide synthesis” (Roche Sequencing Solutions, Inc., priority 2015, dated 2019)

Columns and labels:
[1] = molecular target: T1, streptavidin (Streptomyces avidinii, UniProt P22629); test: Cy5-labeled streptavidin binding to control peptide features on a peptide array (fluorescence signal output, FIG. 12)
Source text: Whereas the hypothetical data presented in FIGS. 8-11 are for two example peptide arrays, actual signal output data following interrogation of a population of control peptide features can be presented in alternative or additional formats. With reference to FIG. 12, data was collected for a peptide array synthesis operation including twelve total synthesis periods. Control peptide features having the streptavidin binder sequence WTHPQFE (SEQ ID NO:1) were synthesized over three consecutive and uninterrupted synthesis periods (e.g., see FIG. 3) with control peptide features synthesized beginning with each of the first ten synthesis periods. […] The signal output is measured for each of the control peptide features using one or more interrogation and detection techniques as described herein. […]
Control peptide features are analyzed following the completion of a synthesis operation by array deprotection, streptavidin binding, and array scanning. […] Streptavidin fluorescence signal is detected by scanning the array at 2 μm resolution and 15% gain with a 635 nm excitation wavelength using an MS200 microarray scanner.
Box and whisker plots for analysis of control peptide feature data are prepared in a two-part process. First, data is aggregated for a plurality of synthesis operations that were individually determined to pass a quality control assessment. […]

[2] = molecular target: T1, streptavidin; details: peptide including the binder sequence; cited from earlier work

T1 sequence (P22629 25-183, species assumed): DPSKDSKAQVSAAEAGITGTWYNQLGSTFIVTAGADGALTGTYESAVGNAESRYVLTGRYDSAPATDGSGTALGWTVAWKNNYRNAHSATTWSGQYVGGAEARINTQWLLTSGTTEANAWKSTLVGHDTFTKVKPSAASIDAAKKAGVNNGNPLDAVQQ

Row | Substance | signal output as percentage of the aggregate data (2^14.3 units) ([1]; fourth synthesis operation, synthesis period four) | signal output as percentage of the aggregate data (2^14.3 units) ([1]; third synthesis operation) | binding by streptavidin [2]
1 | WTHPQFE | about 5% | about 54% | 
2 | FDEWL |  |  | can be bound by streptavidin
